# In paper PMC10541619 (bioRxiv, 2023):
# B1: RADX-N (RADX 43-560, C-terminal truncation construct) (domain or fragment, human, UniProt Q6NSI4 43-560, looked up)
# chain: RSWIQKVLEQIMDSPRQCVTPSEVVPVTVLAVQRYLLEDEPRDTVPKPPLYCYDVTISDGVYQEKCYLDPSLNSLVYQNILKVGIQMRISRVSCLYNEKRIGQGILCIDNVHCGETSDSISLETPFRNRAHQEKPERPLRGGKSHYLALWNNEDPYGDIWLTDKQPEEHNFSDTKIISLSHLEMTWTNRRNFPALLVRILHKSKLRYYGKPDKKMIEPYQTFLEVADSSGTVSVIMWNALCPEWYKSLRVGLVLLLQDYSVKKSYPFRIQPVPVDPQIKLISTMEICLNLRDPPTNIIIIPEKQVKPEWRLPKLNHRFTTRSELDDMPENCICDVIGLLVFVGRVQRSKKKENREDFWSYRWIHIADGTSEQPFIVELFSTSQPEIFENIYPMAYFVCTQLKVVRNDNQVPKLLYLTTTNESGVFITGHRGQPYTYDAKVKNFIQWIRTKSDSGEQKNMVIGGYYPYPPVPETFSKYSSSIKVESLLTAISEVRKEIEDLQYREQKRIAIQGIITAIK
# Target: the molecule itself
# Assay: mass photometry
protein,measurement,value
B1,stoichiometry N,2
